# From patent publication US20230002480A1
# What was measured:
# Test in all cases: cell-based or functional assay
# [1] = target: HIV-1 Env of pseudovirus Ce703010054_2A2 (HIV-1)
# [2] = target: HIV-1 Env of pseudovirus 1054_07_TC4_1499 (HIV-1)
# [3] = target: HIV-1 Env of pseudovirus PVO.4 (HIV-1)
# [4] = target: HIV-1 Env of pseudovirus 6535.3 (HIV-1)
# [5] = target: HIV-1 Env of pseudovirus Du156.12 (HIV-1)
# [6] = target: HIV-1 Env of pseudovirus X2088_c9 (HIV-1)
# [7] = target: HIV-1 Env of pseudovirus CAP45.2.00.G3 (HIV-1)
# [8] = target: HIV-1 Env of pseudovirus CNE20 (HIV-1)
# [9] = target: HIV-1 Env of pseudovirus AC10.0.29 (HIV-1)
# [10] = target: HIV-1 Env of pseudovirus C4118.c09 (HIV-1)
# [11] = target: HIV-1 Env of pseudovirus 6240_08_TA5_4622 (HIV-1)
# [12] = target: HIV-1 Env of pseudovirus 263-8 (HIV-1)
# [13] = target: HIV-1 Env of pseudovirus 928-28 (HIV-1)
# [14] = target: HIV-1 Env of pseudovirus HIV-0013095-2.11 (HIV-1)
# [15] = target: HIV-1 Env of pseudovirus 246F C1G (HIV-1)
# [16] = target: HIV-1 Env of pseudovirus X1254_c3 (HIV-1)
# [17] = target: HIV-1 Env of pseudovirus 191955_A11 (HIV-1)
# [18] = target: HIV-1 Env of pseudovirus Ce704809221_1B3 (HIV-1)
# [19] = target: HIV-1 Env of pseudovirus Q461.e2 (HIV-1)
# [20] = target: HIV-1 Env of pseudovirus 235-47 (HIV-1)
# [21] = target: HIV-1 Env of pseudovirus P0402_c2_11 (HIV-1)
# [22] = target: HIV-1 Env of pseudovirus BJOX009000.02.4 (HIV-1)
# [23] = target: HIV-1 Env of pseudovirus T250-4 (HIV-1)
# [24] = target: HIV-1 Env of pseudovirus ZM135M.PL10a (HIV-1)
# [25] = target: HIV-1 Env of pseudovirus CNE53 (HIV-1)
# [26] = target: HIV-1 Env of pseudovirus WEAU_d15_410_787 (HIV-1)
# [27] = target: HIV-1 Env of pseudovirus Ce1172_H1 (HIV-1)
# [28] = target: HIV-1 Env of pseudovirus CNE52 (HIV-1)
# [29] = target: HIV-1 Env of pseudovirus RHPA4259.7 (HIV-1)
# [30] = target: HIV-1 Env of pseudovirus CAAN5342.A2 (HIV-1)
# [31] = target: HIV-1 Env of pseudovirus T278-50 (HIV-1)
# [32] = target: HIV-1 Env of pseudovirus ZM247v1(Rev-) (HIV-1)
# [33] = target: HIV-1 Env of pseudovirus ZM233M.PB6 (HIV-1)
# [34] = target: HIV-1 Env of pseudovirus Q259.d2.17 (HIV-1)
substance,measurement,setting,value
N49P7.1 (antibody),neutralization IC50,[1],0.085 µg/mL
same,neutralization IC80,[1],0.364 µg/mL
same,neutralization MPI,[1],100
same,neutralization IC50,[2],0.627 µg/mL
same,neutralization IC80,[2],2.98 µg/mL
same,neutralization MPI,[2],100
same,neutralization IC50,[3],0.124 µg/mL
same,neutralization IC80,[3],0.421 µg/mL
same,neutralization MPI,[3],100
same,neutralization IC50,[4],0.224 µg/mL
same,neutralization IC80,[4],0.715 µg/mL
same,neutralization MPI,[4],100
same,neutralization IC50,[5],0.045 µg/mL
same,neutralization IC80,[5],0.131 µg/mL
same,neutralization MPI,[5],100
same,neutralization IC50,[6],0.199 µg/mL
same,neutralization IC80,[6],0.726 µg/mL
same,neutralization MPI,[6],100
same,neutralization IC50,[7],0.086 µg/mL
same,neutralization IC80,[7],0.567 µg/mL
same,neutralization MPI,[7],100
same,neutralization IC50,[8],0.079 µg/mL
same,neutralization IC80,[8],0.224 µg/mL
same,neutralization MPI,[8],100
same,neutralization IC50,[9],5.31 µg/mL
same,neutralization IC80,[9],46.8 µg/mL
same,neutralization MPI,[9],85
same,neutralization IC50,[10],0.048 µg/mL
same,neutralization IC80,[10],0.216 µg/mL
same,neutralization MPI,[10],100
same,neutralization IC50,[11],0.509 µg/mL
same,neutralization IC80,[11],1.95 µg/mL
same,neutralization MPI,[11],100
same,neutralization IC50,[12],0.104 µg/mL
same,neutralization IC80,[12],0.392 µg/mL
same,neutralization MPI,[12],100
same,neutralization IC50,[13],0.23 µg/mL
same,neutralization IC80,[13],0.775 µg/mL
same,neutralization MPI,[13],100
same,neutralization IC50,[14],0.105 µg/mL
same,neutralization IC80,[14],0.374 µg/mL
same,neutralization MPI,[14],100
same,neutralization IC50,[15],0.049 µg/mL
same,neutralization IC80,[15],0.165 µg/mL
same,neutralization MPI,[15],100
same,neutralization IC50,[16],3.96 µg/mL
same,neutralization IC80,[16],18.2 µg/mL
same,neutralization MPI,[16],96
same,neutralization IC50,[17],1.99 µg/mL
same,neutralization IC80,[17],10.1 µg/mL
same,neutralization MPI,[17],98
same,neutralization IC50,[18],0.211 µg/mL
same,neutralization IC80,[18],1.35 µg/mL
same,neutralization MPI,[18],100
same,neutralization IC50,[19],0.329 µg/mL
same,neutralization IC80,[19],1.14 µg/mL
same,neutralization MPI,[19],100
same,neutralization IC50,[20],0.078 µg/mL
same,neutralization IC80,[20],0.419 µg/mL
same,neutralization MPI,[20],97
same,neutralization IC50,[21],0.029 µg/mL
same,neutralization IC80,[21],0.115 µg/mL
same,neutralization MPI,[21],100
same,neutralization IC50,[22],0.219 µg/mL
same,neutralization IC80,[22],0.756 µg/mL
same,neutralization MPI,[22],100
same,neutralization IC50,[23],2.27 µg/mL
same,neutralization IC80,[23],24.7 µg/mL
same,neutralization MPI,[23],89
same,neutralization IC50,[24],0.314 µg/mL
same,neutralization IC80,[24],1.11 µg/mL
same,neutralization MPI,[24],99
same,neutralization IC50,[25],0.066 µg/mL
same,neutralization IC80,[25],0.228 µg/mL
same,neutralization MPI,[25],100
same,neutralization IC50,[26],0.058 µg/mL
same,neutralization IC80,[26],0.142 µg/mL
same,neutralization MPI,[26],100
same,neutralization IC50,[27],17.1 µg/mL
same,neutralization IC80,[27],> 50 µg/mL
same,neutralization MPI,[27],78
same,neutralization IC50,[28],0.021 µg/mL
same,neutralization IC80,[28],0.058 µg/mL
same,neutralization MPI,[28],100
same,neutralization IC50,[29],0.108 µg/mL
same,neutralization IC80,[29],0.292 µg/mL
same,neutralization MPI,[29],100
same,neutralization IC50,[30],0.55 µg/mL
same,neutralization IC80,[30],1.59 µg/mL
same,neutralization MPI,[30],100
same,neutralization IC50,[31],42.4 µg/mL
same,neutralization IC80,[31],> 50 µg/mL
same,neutralization MPI,[31],56
same,neutralization IC50,[32],0.038 µg/mL
same,neutralization IC80,[32],0.176 µg/mL
same,neutralization MPI,[32],100
same,neutralization IC50,[33],0.355 µg/mL
same,neutralization IC80,[33],1.25 µg/mL
same,neutralization MPI,[33],100
same,neutralization IC50,[34],0.505 µg/mL
same,neutralization IC80,[34],4.23 µg/mL
same,neutralization MPI,[34],97
